Test results taken from PMC6389942.

Biological target: HA-Cep57 (centrosomal protein of 57 kDa, full length), Q86XR8-1
Assay: co-IP (FLAG IP, HA-Cep57 western blot band quantification)
Conditions: HEK293T cells; three independent experiments; parent: est. 1.0; read off a plot

Sequence of HA-Cep57 (centrosomal protein of 57 kDa, full length), Q86XR8-1 (Q86XR8 whole entry): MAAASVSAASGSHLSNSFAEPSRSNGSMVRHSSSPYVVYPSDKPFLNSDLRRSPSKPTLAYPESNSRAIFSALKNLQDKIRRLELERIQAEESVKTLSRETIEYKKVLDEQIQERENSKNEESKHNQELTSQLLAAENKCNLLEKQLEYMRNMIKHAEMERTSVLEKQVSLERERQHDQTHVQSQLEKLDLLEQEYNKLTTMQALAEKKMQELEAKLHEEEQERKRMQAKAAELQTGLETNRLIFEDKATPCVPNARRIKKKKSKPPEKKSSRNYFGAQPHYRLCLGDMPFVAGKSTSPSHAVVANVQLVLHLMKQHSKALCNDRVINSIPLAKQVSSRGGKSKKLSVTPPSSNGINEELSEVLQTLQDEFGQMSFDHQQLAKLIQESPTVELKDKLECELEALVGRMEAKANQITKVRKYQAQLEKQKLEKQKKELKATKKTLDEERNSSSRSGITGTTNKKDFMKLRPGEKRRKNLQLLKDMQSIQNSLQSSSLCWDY

response: 0.11
Substance: FLAG-PCNT 2536–3336 WT K3154del
